T1: biotinylated human DLL3 protein expressed as a human IgG1 fusion protein (human, UniProt Q9NYJ7 27-492, limits assumed, biotinylated)
T1 sequence: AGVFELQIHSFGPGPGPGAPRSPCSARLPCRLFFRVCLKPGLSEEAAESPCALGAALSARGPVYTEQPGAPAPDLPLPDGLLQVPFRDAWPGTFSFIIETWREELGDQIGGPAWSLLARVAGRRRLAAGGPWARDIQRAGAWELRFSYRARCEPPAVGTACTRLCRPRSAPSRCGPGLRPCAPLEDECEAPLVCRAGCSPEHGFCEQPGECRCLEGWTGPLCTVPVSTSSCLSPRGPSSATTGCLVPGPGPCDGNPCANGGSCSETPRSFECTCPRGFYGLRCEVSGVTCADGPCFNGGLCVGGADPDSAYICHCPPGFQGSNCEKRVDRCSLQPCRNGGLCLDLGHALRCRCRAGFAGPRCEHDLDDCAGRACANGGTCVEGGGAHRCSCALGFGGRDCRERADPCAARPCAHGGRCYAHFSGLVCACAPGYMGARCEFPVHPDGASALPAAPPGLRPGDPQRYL

B1: 2C01 anti-DLL3 trispecific protein (other)
chain: EVQLVESGGGLVQPGGSLTLSCVASGSTASINAMGWYRRAPGKQRELVAGISSDGSKVYADSVKGRFTISRDNAKNSVYLQMNSLRAEDTAVYYCYYFRYVSGSSMRYWGQGTLVTVSS
notes: not shown: linker 1808, anti-albumin sdAb, linker 1808, anti-CD3 fragment, His6 1819
B2: 2F07 anti-DLL3 trispecific protein (other)
chain: EVQLVESGGGLVQPGGSLTLSCVASGSTSSINAVGWYRRAPGKQRELVAGISSDGSSVYADSVKGRFTISRDNAKNSVYLQMNSLRAEDTAVYYCYYFRTVSTSSMRYWGQGTLVTVSS
notes: as for B1
B3: 2D05 anti-DLL3 trispecific protein (other)
chain: EVQLVESGGGLVQPGGSLTLSCVASGSTSRINAMGWYRRAPGKQRELVAGISSDGSKVYADSVKGRFTISRDNAKNSVYLQMNSLRAEDTAVYYCYYFRTASGSSMRYWGQGTLVTVSS
notes: as for B1
B4: 2F03 anti-DLL3 trispecific protein (other)
chain: EVQLVESGGGLVQPGGSLTLSCVASGSTSSINAMAWYRRAPGKQRELAAGISSDNSKVYADSVKGRFTISRDNAKNSVYLQMNSLRAEDTAVYYCYYFRTVGGSSMRYWGQGTLVTVSS
notes: as for B1
B5: 2E08 anti-DLL3 trispecific protein (other)
chain: EVQLVESGGGLVQPGGSLTLSCVASGSRSSINAMGWYRRAPGKQRELVAGISADGSKVYADSVKGRFTISRDNAKNSVYLQMNSLRAEDTAVYYCYYFRTQSGSSMRYWGQGTLVTVSS
notes: as for B1
B6: 2G03 anti-DLL3 trispecific protein (other)
chain: EVQLVESGGGLVQPGGSLTLSCVASGSTSSINAMGWYRRAPGKQRELVAGISSDGSLVYADSVKGRFTISRDNAKNSVYLQMNSLRAEDTAVYYCYYFRTVSGSSMRAWGQGTLVTVSS
notes: as for B1
B7: 2D04 anti-DLL3 trispecific protein (other)
chain: EVQLVESGGGLVQPGGSLTLSCVASGSTSSINAVGWYRRAPGKQRELVAGISSDGSKVYRDSVKGRFTISRDNAKNSVYLQMNSLRAEDTAVYYCYYFRTVQGSSMRYWGQGTLVTVSS
notes: as for B1
B8: 2C010 anti-DLL3 trispecific protein (other)
chain: EVQLVESGGGLVQPGGSLTLSCVASGSTSKINAMGWYRRAPGKQRELVAGISSDRSKVYADSVKGRFTISRDNAKNSVYLQMNSLRAEDTAVYYCYYFRTVAGSSMRYWGQGTLVTVSS
notes: as for B1
B9: 2D011 anti-DLL3 trispecific protein (other)
chain: EVQLVESGGGLVQPGGSLTLSCVASGTTSSINAMGWYRRAPGKQRELVAGISSDGSKVYADSVKGRFTISRDNAKNSVYLQMNSLRAEDTAVYYCYYFRTVWGSSMRYWGQGTLVTVSS
notes: as for B1
B10: 2C02 anti-DLL3 trispecific protein (other)
chain: EVQLVESGGGLVQPGGSLTLSCVASGSTSSINAVGWYRRAPGKQRELVAGISSDGSKVYVDSVKGRFTISRDNAKNSVYLQMNSLRAEDTAVYYCYYFRTVYGSSMRYWGQGTLVTVSS
notes: as for B1
B11: 2C06 anti-DLL3 trispecific protein (other)
chain: EVQLVESGGGLVQPGGSLTLSCVASGSTNSINAMGWYRRAPGKQRELVAGISSDGSKVYKDSVKGRFTISRDNAKNSVYLQMNSLRAEDTAVYYCYYYRTVSGSSMRYWGQGTLVTVSS
notes: as for B1
B12: 2C08 anti-DLL3 trispecific protein (other)
chain: EVQLVESGGGLVQPGGSLTLSCVASGSTSRINAMGWYRRAPGKQRELVAGISSDGSKVYQDSVKGRFTISRDNAKNSVYLQMNSLRAEDTAVYYCYYFRRVSGSSMRYWGQGTLVTVSS
notes: as for B1
B13: 2D07 anti-DLL3 trispecific protein (other)
chain: EVQLVESGGGLVQPGGSLTLSCVASGSTSSINAVGWYRRAPGKQRELVAGISSDGTKVYRDSVKGRFTISRDNAKNSVYLQMNSLRAEDTAVYYCYYFRTVQGSSMRYWGQGTLVTVSS
notes: as for B1
B14: 2D06 anti-DLL3 trispecific protein (other)
chain: EVQLVESGGGLVQPGGSLTLSCVASGSTSSINAMGWYRRAPGKQRELVAGISSDGSKVYSDSVKGRFTISRDNAKNSVYLQMNSLRAEDTAVYYCYYFRTVSGSSSRYWGQGTLVTVSS
notes: as for B1
B15: 2F02 anti-DLL3 trispecific protein (other)
chain: EVQLVESGGGLVQPGGSLTLSCVASGSTSSINAVGWYRRAPGKQRELVAGISSDGSKVYAGSVKGRFTISRDNAKNSVYLQMNSLRAEDTAVYYCYYFRTVSGSYMRYWGQGTLVTVSS
notes: as for B1
B16: 2E06 anti-DLL3 trispecific protein (other)
chain: EVQLVESGGGLVQPGGSLTLSCVASGSTSSINAMGWYRRAPGKQRELVAGISSDGSKVYASSVKGRFTISRDNAKNSVYLQMNSLRAEDTAVYYCYYFRTVRGSSMRYWGQGTLVTVSS
notes: as for B1
B17: 2G07 anti-DLL3 trispecific protein (other)
chain: EVQLVESGGGLVQPGGSLTLSCVASGSTSSINAMAWYRRAPGKQRELVAGISSDGSKVYADSVKGRFTISRDNAKNSVYLQMNSLRAEDTAVYYCYYFRTVQGSSMRYWGQGTLVTVSS
notes: as for B1
B18: 2D012 anti-DLL3 trispecific protein (other)
chain: EVQLVESGGGLVQPGGSLTLSCVASGKTSSINAMGWYRRAPGKQRELVAGISSDGSKVYTDSVKGRFTISRDNAKNSVYLQMNSLRAEDTAVYYCYYFRTRSGSSMRYWGQGTLVTVSS
notes: as for B1
B19: 2C09 anti-DLL3 trispecific protein (other)
chain: EVQLVESGGGLVQPGGSLTLSCVPSGSTSNINAMGWYRRAPGKQRELPAGISSDGTKIYADSAKVPFTITRDNAKNSVYLQMNSLRAEDTAVYYCYYFRTVSGTSMRYWGQGTLVTVSS
notes: as for B1
B20: 2F09 anti-DLL3 trispecific protein (other)
chain: EVQLVESGGGLVQPGGSLTLSCVASGSTSSINAMAWYRRAPGKQRELVAGISSDGSKLYADSVKGRFTISRDNAKNSVYLQMNSLRAEDTAVYYCYYFRTVSGSSMRYWGQGTLVTVSS
notes: as for B1
B21: 2C07 anti-DLL3 trispecific protein (other)
chain: EVQLVESGGGLVQPGGSLTLSCVASGSTSSINAMAWYRRAPGKQRELVAGISSDGSKVYADSVKGRFTISRDNAKNSVYLQMNSLRAEDTAVYYCYYFRSVSGSSMRYWGQGTLVTVSS
notes: as for B1
B22: 2D09 anti-DLL3 trispecific protein (other)
chain: EVQLVESGGGLVQPGGSLTLSCVASGTTSSINAMGWYRRAPGKQRELAAGISSDGSKVYNDSVKGRFTISRDNAKNSVYLQMNSLRAEDTAVYYCYYFRTVRGSSMRYWGQGTLVTVSS
notes: as for B1
B23: 2G04 anti-DLL3 trispecific protein (other)
chain: EVQLVESGGGLVQPGGSLTLSCVASGSTSSINAMGWYRRAPGKQRELVAGISSDGSLVYADSVKGRFTISRDNAKNSVYLQMNSLRAEDTAVYYCYYFRILSGSSMRYWGQGTLVTVSS
notes: as for B1
B24: 2F01 anti-DLL3 trispecific protein (other)
chain: EVQLVESGGGLVQPGGSLTLSCVASGSTSSINAMGWYRRAPGKQRELVAGISSDGSKVYSDSVKGRFTISRDNAKNSVYLQMNSLRAEDTAVYYCYYFRLVSGSSMRYWGQGTLVTVSS
notes: as for B1
B25: 2D02 anti-DLL3 trispecific protein (other)
chain: EVQLVESGGGLVQPGGSLTLSCVASGSTSSINALGWYRRAPGKQRELVAGISSDGSLVYADSVKGRFTISRDNAKNSVYLQMNSLRAEDTAVYYCYYFRIVSGSSMRYWGQGTLVTVSS
notes: as for B1
B26: 2F08 anti-DLL3 trispecific protein (other)
chain: EVQLVESGGGLVQPGGSLTLSCVASGSKSSINAMGWYRRAPGKQRELPAGISSNGTKVYADSAKVRFTISRDNAKNSVYLQMNSLRAEDTAVYYCYYFRTVLGTSMRYWGQGTLVTVSS
notes: as for B1
B27: 2D010 anti-DLL3 trispecific protein (other)
chain: EVQLVESGGGLVQPGGSLTLSCVASGSTSSINAMGWYRRAPGKQRELVAGISSDGSKVYADSVKGRFTISRDNAKNSVYLQMNSLRAEDTAVYYCYYFRTKSGSSMRYWGQGTLVTVSS
notes: as for B1
B28: 2G08 anti-DLL3 trispecific protein (other)
chain: EVQLVESGGGLVQPGGSLTLSCVASGSTSYINAMGWYRRAPGKQRELVAGISSDGSKVYADSVKGRFTISRDNAKNSVYLQMNSLRAEDTAVYYCYYFRTVSGQSMGYWGQGTLVTVSS
notes: as for B1
B29: 2F06 anti-DLL3 trispecific protein (other)
chain: EVQLVESGGGLVQPGGSLTLSCVASGSTSSINAYGWYRRAPGKQRELVAGISSDGSAVYADSVKGRFTISRDNAKNSVYLQMNSLRAEDTAVYYCYYFRTHSGSSMRYWGQGTLVTVSS
notes: as for B1
B30: 2D03 anti-DLL3 trispecific protein (other)
chain: EVQLVESGGGLVQPGGSLTLSCVASGKTSSINAMGWYRRAPGKQRELVAGISSDGSKVYADSVKGRFTISRDNAKNSVYLQMNSLRAEDTAVYYCYYFRTVSGVSMRYWGQGTLVTVSS
notes: as for B1
B31: 2E09 anti-DLL3 trispecific protein (other)
chain: EVQLVESGGGLVQPGGSLTLSCVASGSVSSINAMGWYRRAPGKQRELVAGISSDGSKVYASSAKGRFTISRDNAKNSVYLQMNSLRAEDTAVYYCYYFRTLSGSSMRYWGQGTLVTVSS
notes: as for B1

Biological target: T1, biotinylated human DLL3 protein …
Assay: Octet BLI, single 50 nM
Procedure: Using the conditioned medium with known concentrations of the anti-DLL3 trispecific proteins, the binding affinities of the anti-DLL3 trispecific proteins toward human DLL3 protein were measured using a method where biotinylated version of human DLL3 protein were expressed as a human IgG1 fusion protein, and the binding affinity measurement was carried out in an Octet instrument with streptavidin tips.

| Binder | Kd [nM] |
| --- | --- |
| B1 | 12 |
| B2 | 8 |
| B3 | 8.3 |
| B4 | 5.9 |
| B5 | 17 |
| B6 | 5.6 |
| B7 | 6.2 |
| B8 | 7.6 |
| B9 | 5.4 |
| B10 | 4.1 |
| B11 | 6.7 |
| B12 | 6.1 |
| B13 | 6 |
| B14 | 6.6 |
| B15 | 9.6 |
| B16 | 11 |

| Binder | Kd [nM] |
| --- | --- |
| B17 | 6.5 |
| B18 | 4.9 |
| B19 | 6.4 |
| B20 | 6.5 |
| B21 | 6.2 |
| B22 | 8.2 |
| B23 | 11 |
| B24 | 9.2 |
| B25 | 14 |
| B26 | 20 |
| B27 | 7.3 |
| B28 | 4.1 |
| B29 | 10 |
| B30 | 6.8 |
| B31 | 8.5 |
